{"source": "patent US7214663B2", "about": "“Tripeptide prodrug compounds” (Medarex, Inc., priority 2001, dated 2007)", "key": {"in vivo": {"assay": "in vivo", "details": "female, ICR, mouse, iv, 100 umol/kg", "quoted_text": "Plasma was obtained from three individual animals in each group at 5 minutes, 1, 2, 4, or 6 hr."}, "[1]": {"system": "HeLa cell anion exchange fraction (F1), trouase", "assay": "Relative cleavage by HeLa cell anion exchange fraction (F1) versus Suc-βAla-Leu-Ala-Leu standard", "format": "biochemical, human", "protocol": "Thirty billion commercially produced HeLa Cells (human cervical carcinoma, Computer Cell Culture Ceizter, Seneffe, Belgium) were homogenized with a sonicator and with a Dounce homogenizer in 108 mL of aqueous lysis solution. The lysis solution contained 0.02% w/v Triton X-100, 0.04% w/v sodium azide, and a cocktail of protease inhibitors (2 tablets/50 mL Complete™, EDTA-free tablets, Roche Molecular Biochemicals). The cell homogenate was centrifuged 30 minutes at 4° C. at 5000×g and the pellet was homogenized in a second 108 mL of lysis solution using a Dounce homogenizer and centrifuged as before. The supernatants were combined and centrifuged for 90 min at 145,000×g at 4° C.\nA portion of the ultracentrifugation supernatant was diluted 2-fold with a 20 mM triethanolamine-HCl pH 7.2 buffer containing 0.01% (w/v) Triton X-100 and 0.02% (w/v) sodium azide (equilibration buffer). Thirty mL of the resulting solution, corresponding to approximately 180 mg of protein, was loaded at 4° C. on a 2.6×9.4 cm Source™ 15Q (Amersham Pharmacia Biotech) low pressure anion exchange chromatography column (1 ml/minute). The column was then washed with 250 ml of the equilibration buffer at a flow rate of 1 mL/minute. Proteins were eluted in a NaCl linear concentration gradient (0–0.5 M in the equilibration buffer, total volume of the gradient was 1000 ml) at a flow rate of 3 ml/minute. Two-minute fractions were collected and used for enzyme activity determination using βAla-Leu-Ala-Leu-Dox as the substrate. Its transformation into Ala-Leu-Dox was quantified by reverse phase high performance liquid chromatography utilizing fluorescence detection of the anthracycline moiety. The fractions containing the highest activity levels were pooled (fractions #43–46; ˜0.13 M NaCl), supplemented with protease inhibitors (Complete™, EDTA-free tablets, Roche Molecular Biochemicals), and stored as aliquots at −80° C.\nTest compounds were incubated for 2 hr at 37° C. at a concentration of 12.5 μg/mL with HeLa cell anion exchange fraction (F1), as prepared in Example 1(c). Following incubation, three volumes of acetonitrile were added to stop the reaction and remove protein from the mixture. The sample was centrifuged at 18,000 g for 5 minutes and 100 μL of supernatant was mixed with 300 μL of water prior to analysis by HPLC. For HPLC analysis 50 μL of sample was injected on a 4.6×50 mm 2μ TSK Super-ODS chromatography column at 40° C. and eluted with a 3 minute linear gradient from 26% to 68% acetonitrile in aqueous 20 mM ammonium acetate pH 4.5 buffer at 2 mL/min. Detection was by fluorescence using an excitation wavelength of 235 nm and an emission wavelength of 560 nm.\nthe amount of cleavage of each test compound was compared to the amount of a standard Suc-βAla-Leu-Ala-Leu-therapeutic agent conjugate cleaved by F1 under the same conditions. The therapeutic agent in the standard (Dox or Dnr) was the same as in the test compound. Table 3 provides the relative cleavage rates of several tripeptide prodrugs."}, "[2]": {"details": "mouse, in vivo, intravenous"}, "[3]": {"system": "purified Porcine Kidney CD10", "assay": "Hydrolysis by purified CD10", "format": "biochemical", "protocol": "Reaction products were analyzed by HPLC with fluorescence detection. Rates were essentially linear over the incubation period. The observed product was Leu-doxorubicin."}, "tumor-bearing nude mice": {"system": "tumor-bearing nude mice", "assay": "Repeat-dose tolerability / repeat dose MTD in tumor bearing mice", "format": "in vivo, mouse", "excerpt": "(§1) In one study, one animal in each dose group (n=8) was terminated as a possible drug-related toxicity death late in the study, at Days 58 and 57 in the low and high dose-groups respectively. The safety of the compound was evidenced by little body weight loss in either the high or low dose groups (less than 5% of the initial weight) during the 60-day observation period, in surviving animals (FIG. 14). In the other study, both the high and low dose were well tolerated. Only one animal in the high dose group (n=10) had over 15% of body weight loss at the end of the study (Day 61).\n(§2) In repeat-dose studies in tumor bearing mice, groups of ten mice were dosed with various amounts of prodrug for a total of five doses at either five day or 1 week intervals. […] Thus, the prodrugs permit a much greater amount of therapeutic agent to be delivered to the body as a whole and thus to the vicinity of the target cell."}, "[4]": {"assay": "Repeat-dose tolerability / repeat dose MTD in tumor bearing mice", "format": "in vivo, mouse", "details": "mouse, in vivo, intravenous, five doses, based on efficacy study in Example 12", "excerpt": "as §1, §2"}, "[5]": {"system": "healthy young female normal mice"}, "[6]": {"system": "human colon carcinoma (LS174T)", "assay": "LS174T xenograft efficacy study", "quoted_text": "Healthy young female nude mice were subcutaneously implanted with chunks of LS174T. […] Tumor size and body weights were measured twice weekly for up to 60 days."}, "[7]": {"details": "first experiment, as first stated"}, "[8]": {"details": "recalculation (about 47% active compound)"}}, "note": "Where two headings read alike, the source gives them in different places."}
{"compound": "COc1cccc2c1C(=O)c1c(O)c3c(c(O)c1C2=O)C[C@@](O)(C(=O)CO)C[C@@H]3O[C@H]1C[C@H](NC(=O)[C@H](CC(C)C)NC(=O)[C@H](C)NC(=O)[C@H](CC(C)C)NC(=O)CCC(=O)O)[C@H](O)[C@H](C)O1", "note": "[Suc-Leu-Ala-Leu-Dox]", "values": [{"measurement": "AUC", "setting": "in vivo", "result": 634, "unit": "µM·h"}, {"measurement": "Relative Cleavage %", "setting": "[1]; 2 hr at 37° C., 12.5 μg/mL, HeLa F1, relative to Suc-βAla-Leu-Ala-Leu-(Dox or Dnr) standard", "result": 62, "unit": "%"}, {"measurement": "Relative Rate of Cleavage", "setting": "[1]; relative to Suc-βAla-Leu-Ala-Leu-Dox = 100 (Tables 11 and 12)", "result": 62}, {"measurement": "MTD at 28 day", "setting": "[2]", "result": "~59", "unit": "mg/kg"}, {"measurement": "% hydrolysis/10 hr", "setting": "[3]; 12.5 μg/mL, 37° C., pH 7.4, up to 10 hr", "result": 8.3, "unit": "%"}, {"measurement": "Fraction hydrolyzed relative to standard", "setting": "[3]; standard Suc-βAla-Leu-Ala-Leu-Dox", "result": 0.75}, {"measurement": "acute signs of toxicity following repeat administration", "setting": "tumor-bearing nude mice; 52 or 63 mg/kg every 5 days for five doses", "result": "no acute signs of toxicity"}, {"measurement": "body weight loss, % of the initial weight", "setting": "tumor-bearing nude mice; 52 or 63 mg/kg intravenously every 5 days for five doses, 60-day observation", "result": "less than 5%"}, {"measurement": "Optimal Efficacy Repeat Dose (mg/kg), value in parentheses (doxorubicin equivalent dose)", "setting": "tumor-bearing nude mice; Table 11, five doses at five day or 1 week intervals", "result": 38, "unit": "mg/kg"}, {"measurement": "Optimal Efficacy Repeat Dose", "setting": "tumor-bearing nude mice; Table 11, five doses at five day or 1 week intervals, tumor bearing mice, 60 days", "result": 63, "unit": "mg/kg"}, {"measurement": "MTD at 60 day", "setting": "[4]", "result": "~52", "unit": "mg/kg"}, {"measurement": "equivalent dose of doxorubicin safely administered", "setting": "[5]; [7]", "result": 66, "unit": "mg/kg"}, {"measurement": "fold higher than possible with doxorubicin alone", "setting": "[5]; [7]", "result": "approximately 8 fold"}, {"measurement": "mortalities over the 28-day study", "setting": "[5]; intravenous 23-117 mg/kg", "result": "no mortalities"}, {"measurement": "single-dose MTD", "setting": "[5]; intravenous, mice, 28-day study, first experiment, doses as first stated", "result": "greater than 117 mg/kg"}, {"measurement": "equivalent dose of doxorubicin safely administered", "setting": "[5]; [8]", "result": 70, "unit": "mg/kg"}, {"measurement": "fold higher than possible with doxorubicin alone", "setting": "[5]; [8]", "result": "approximately 3.3 fold"}, {"measurement": "single dose MTD, fold higher than doxorubicin alone", "setting": "[5]; repeated experiment", "result": "at least 1.2 fold"}, {"measurement": "Mean Day of Survival", "setting": "[6]; 52 mg/kg every 5 days for 5 doses", "result": 20, "unit": "days"}, {"measurement": "Mean Day of Survival", "setting": "[6]; 63 mg/kg every 5 days for 5 doses", "result": 32, "unit": "days"}, {"measurement": "anti-tumor activity in LS174T xenograft", "setting": "[6]; doxorubicin-insensitive model", "result": "decreased the rate of tumor growth considerably"}]}
